These results are taken from article PMC2821923, “Visualizing Interactions along the Escherichia coli Twin-Arginine Translocation Pathway Using Protein Fragment Complementation” (PLoS ONE, 2010).

Series [1] addresses DmsA-Y1 (entire DmsA enzyme fused to the N-terminal YFP fragment) (E. coli) (UniProt P18775). Nature of the series: split reporter (BiFC, NanoBiT); split YFP (Y1 1-154, Y2 155-238) BiFC in living E. coli TG1 cells (wt; also ΔtatE, ΔtatB, ΔtatC, ΔtatAE, ΔtatABCE); 1 mM IPTG, 8 h at room temperature; median cell fluorescence by flow cytometry, normalised to ssDmsA-Y1/DmsD-Y2, and fluorescence microscopy; substrate or signal peptide with …. A general note: In flow cytometry, cells or beads pass a laser one at a time.

In series [2] the target is ssDmsA-Y1 (DmsA signal peptide fused to the N-terminal YFP fragment) (E. coli). The series is described as above.
In series [3] the target is TatC fused to a YFP fragment (TatC-Y1; TatC-Y2) (E. coli) (UniProt P69423). Nature of the series: split reporter (BiFC, NanoBiT); split YFP BiFC in living TG1 ΔtatABCE cells (TatA also in ΔtatAE, TatB/TatC also in ΔtatB and ΔtatC); median fluorescence by flow cytometry against unfused Y1 or Y2 controls, fluorescence microscopy.
Series [4] addresses TatB fused to a YFP fragment (TatB-Y1; TatB-Y2) (E. coli) (UniProt P69425). The description is as above.
In series [5] the target is TatC(P48A) fused to a YFP fragment (P48A-Y1; P48A-Y2) (E. coli) (UniProt P69423). The series is described as above.
The target of series [6] is TatC(E103R) fused to a YFP fragment (E103R-Y1; E103R-Y2) (E. coli) (UniProt P69423). The series is described as above.
Series [7] deals with the molecule itself. Described as above.

Take “DmsD fused to a YFP fragment (DmsD-Y2; DmsD-Y1) (from UniProt P69853 1-204) (natural protein)”: the BiFC signal relative to the ssDmsA-Y1/DmsD-Y2 pair in series [1] is 50%. Besides, the DmsA binding activity in series [1] (scale: relative) came out at 0.62. Further, in series [2], the BiFC fluorescence, fold over background (unfused Y1 with DmsD-Y2) stood at 5 fold and the median fluorescence (M) amounted to 2250. The molecule also showed a ssDmsA binding activity in series [2] (scale: relative) of 1.
With ssDmsA(KK)-Y1 (domain or fragment), the values for the BiFC signal, fold above background in series [3] and in series [4] were 10.7 fold and 5.4 fold, respectively.
On to “ssDmsA-Y1 (DmsA signal peptide fused to the N-terminal YFP fragment) (domain or fragment)”, for which the BiFC signal, fold less than with wt TatC in series [5] and in series [6] was 2 fold each time. The BiFC signal, fold above background in series [3] worked out at 7 fold; in series [4], 3.5 fold.

B1: TatA(F39A) fused to a YFP fragment (F39A-Y1; F39A-Y2) (natural protein, E. coli, UniProt P69428 1-89, looked up)
chain: MGGISIWQLLIIAVIVVLLFGTKKLGSIGSDLGASIKGAKKAMSDDEPKQDKTSQDADFTAKTIADKQADTNQEQAKTEDAKRHDKEQV
notes: TatA, E. coli, full length, with F39A in the predicted amphipathic region; also called TatA(F39A)-Y1; TatA(F39)-Y2; source: E. coli TG1 ΔtatABCE (also TG1 ΔtatAE), co-expressed from plasmids pF39A-Y1 and pF39A-Y2, in living cells
For the molecule B1, the “BiFC signal relative to the wt TatA homo-oligomers” value in series [7] was roughly 2 fold.
